The values that follow come from PMC10300371, “Categorization of Escherichia coli outer membrane proteins by dependence on accessory proteins of the β-barrel assembly machinery complex” (The Journal of Biological Chemistry, 2023).

B1: OmpF (natural protein, E. coli, UniProt P02931 23-362, looked up)
chain: AEIYNKDGNKVDLYGKAVGLHYFSKGNGENSYGGNGDMTYARLGFKGETQINSDLTGYGQWEYNFQGNNSEGADAQTGNKTRLAFAGLKYADVGSFDYGRNYGVVYDALGYTDMLPEFGGDTAYSDDFFVGRVGGVATYRNSNFFGLVDGLNFAVQYLGKNERDTARRSNGDGVGGSISYEYEGFGIVGAYGAADRTNLQEAQPLGNGKKAEQWATGLKYDANNIYLAANYGETRNATPITNKFTNTSGFANKTQDVLLVAQYQFDFGLRPSIAYTKSKAKDVEGIGDVDLVNYFEVGATYYFNKNMSTYVDYIINQIDSDNKLGVGSDDTVAVGIVYQF
modifications: 35S-methionine and 35S-cysteine (radiolabel)
notes: Made as a monomer and seen as a trimer after assembly into EMM; also called 35S-labeled OmpF; major porin; source: in vitro translated, rabbit reticulocyte lysate (Promega), 35S-labelled; assembled into EMM
B2: LamB (natural protein, E. coli, UniProt P02943 26-446, looked up)
chain: VDFHGYARSGIGWTGSGGEQQCFQTTGAQSKYRLGNECETYAELKLGQEVWKEGDKSFYFDTNVAYSVAQQNDWEATDPAFREANVQGKNLIEWLPGSTIWAGKRFYQRHDVHMIDFYYWDISGPGAGLENIDVGFGKLSLAATRSSEAGGSSSFASNNIYDYTNETANDVFDVRLAQMEINPGGTLELGVDYGRANLRDNYRLVDGASKDGWLFTAEHTQSVLKGFNKFVVQYATDSMTSQGKGLSQGSGVAFDNEKFAYNINNNGHMLRILDHGAISMGDNWDMMYVGMYQDINWDNDNGTKWWTVGIRPMYKWTPIMSTVMEIGYDNVESQRTGDKNNQYKITLAQQWQAGDSIWSRPAIRVFATYAKWDEKWGYDYTGNADNNANFGKAVPADFNGGSFGRGDSDEWTFGAQMEIWW
modifications: 35S-methionine and 35S-cysteine (radiolabel)
notes: Made as a monomer and seen as a trimer after assembly into EMM; also called 35S-labeled LamB; maltoporin; source: in vitro translated, rabbit reticulocyte lysate (Promega), 35S-labelled; assembled into EMM
B3: OmpC (natural protein, E. coli, UniProt P06996 22-367, looked up)
chain: AEVYNKDGNKLDLYGKVDGLHYFSDNKDVDGDQTYMRLGFKGETQVTDQLTGYGQWEYQIQGNSAENENNSWTRVAFAGLKFQDVGSFDYGRNYGVVYDVTSWTDVLPEFGGDTYGSDNFMQQRGNGFATYRNTDFFGLVDGLNFAVQYQGKNGNPSGEGFTSGVTNNGRDALRQNGDGVGGSITYDYEGFGIGGAISSSKRTDAQNTAAYIGNGDRAETYTGGLKYDANNIYLAAQYTQTYNATRVGSLGWANKAQNFEAVAQYQFDFGLRPSLAYLQSKGKNLGRGYDDEDILKYVDVGATYYFNKNMSTYVDYKINLLDDNQFTRDAGINTDNIVALGLVYQF
modifications: 35S-methionine and 35S-cysteine (radiolabel)
notes: Made as a monomer and seen as a trimer after assembly into EMM; also called 35S-labeled OmpC; major porin; source: in vitro translated, rabbit reticulocyte lysate (Promega), 35S-labelled; assembled into EMM

The series concerns the molecule itself. Briefly: native gel or EMSA; 35S-labelled protein incubated with EMM at 30 °C for 10 to 90 min, EMM solubilised in 1.5% DDM, BN-PAGE and radioimaging; monomer to trimer.
For B1, the stoichiometry N (usually a count of units in the complex or per binding partner) turned out to be 3. To B2 belongs 3; to B3, 3.
